Laboratory results as given in the RNAGym collection of RNA variant scans (doi:10.7554/elife.90254).

B1: LINE1-full (parent)
chain: UACGUAGGUGGUUUUCCCCUGAUAGUGCUAAGGGGGCCUGGAAGUUUGGACUGGGCAGAGCUCAACACAGCGUGGCAAAGUGGCUGUGGCUAGACUGCCUCUCUGGAUUCCUCGUCACUCAGCAGGGCAUCUCUGAGAGAAAUGCC

Variants of: B1
Assay: self-cleavage, relative activity (ratio to wild type); higher = more cleavage; in vitro, sequencing; the parent is a self-cleaving ribozyme
U14C U52C showed a self-cleavage of 1.21.
Work on C103U A138G yielded a self-cleavage of 1.49.
In the case of A121G A140C, the self-cleavage is reported as 1.93.
U52C G144A gave a self-cleavage of 1.73.
In the case of C66U U91A, the self-cleavage is reported as 0.05.
With U14A U62G the self-cleavage was 0.53.
Work on A50G A142G yielded a self-cleavage of 0.9.
Work on U62G U108C yielded a self-cleavage of 0.07.
Work on U29C U46C yielded a self-cleavage of 1.36.
U46G U96C showed a self-cleavage of 0.74.
In the case of A64C C95A, the self-cleavage is reported as 0.01.
In the case of C56U C128U, the self-cleavage is reported as 0.22.
With A121U A124U the self-cleavage was 1.54.
For U15C U87C, the self-cleavage was 0.33.
In the case of G44A U109C, the self-cleavage is reported as 1.09.
For G89A U112C, the self-cleavage was 0.05.
For A77G A94G, the self-cleavage was 0.68.
Variant G36A U108A has a self-cleavage of 1.23.
Work on A69C A121G yielded a self-cleavage of 0.11.
G10A G35A showed a self-cleavage of 0.92.
With A129U A140U the self-cleavage was 0.88.
G93U A121C showed a self-cleavage of 0.03.
Work on G36U U119A yielded a self-cleavage of 1.4.
In the case of U73C G125A, the self-cleavage is reported as 0.8.
A22G G127U gave a self-cleavage of 1.67.
For A92G G127A, the self-cleavage was 0.12.
A121U A136G showed a self-cleavage of 1.47.
Work on G75A G83A yielded a self-cleavage of 0.76.
Work on U130C G135U yielded a self-cleavage of 0.97.
For A42G U87A, the self-cleavage was 0.1.
Work on G25A U85A yielded a self-cleavage of 0.08.
U29C U73A showed a self-cleavage of 1.59.
C3A A78G showed a self-cleavage of 0.64.
With U20C U87C the self-cleavage was 0.24.
In the case of C61U A107G, the self-cleavage is reported as 0.03.
Variant C37U U115C has a self-cleavage of 1.67.
For C19U U45A, the self-cleavage was 1.43.
G105A A117G gave a self-cleavage of 1.59.
Variant U87C A141U has a self-cleavage of 0.2.
With U46C A129G the self-cleavage was 2.35.
In the case of U104C U143A, the self-cleavage is reported as 1.56.
U1C A22U showed a self-cleavage of 0.54.
Variant A43G A64C has a self-cleavage of 0.2.
In the case of U26A U102C, the self-cleavage is reported as 1.13.
With U100A C111A the self-cleavage was 1.19.
C37G U143C gave a self-cleavage of 1.38.
In the case of A65C U81A, the self-cleavage is reported as 0.02.
Work on U26A U112A yielded a self-cleavage of 0.9.
Work on U46C A117U yielded a self-cleavage of 1.78.
In the case of A59U A141G, the self-cleavage is reported as 0.96.
Work on U87C yielded a self-cleavage of 0.22.
Work on U130A A141U yielded a self-cleavage of 1.13.
G122U A142G showed a self-cleavage of 1.52.
Work on A42G A121U yielded a self-cleavage of 1.4.
In the case of A107G A117C, the self-cleavage is reported as 0.66.
G36A U100C gave a self-cleavage of 2.05.
For G10A U20C, the self-cleavage was 1.6.
C38G U73A gave a self-cleavage of 1.76.
For A94G U132G, the self-cleavage was 0.28.
Work on U29A U109C yielded a self-cleavage of 1.25.
In the case of A59U A79G, the self-cleavage is reported as 0.83.
A67G G135A gave a self-cleavage of 0.68.
U23C G144A showed a self-cleavage of 1.28.
Work on U108A A129U yielded a self-cleavage of 1.92.
U73C A77G gave a self-cleavage of 2.78.
Work on U29A G35U yielded a self-cleavage of 1.16.
A141G C146U showed a self-cleavage of 1.31.
C17U A138U showed a self-cleavage of 1.29.
With A129G C146U the self-cleavage was 1.59.
In the case of A50U U143A, the self-cleavage is reported as 1.47.
For U87G A141G, the self-cleavage was 0.
Variant U46C A77G has a self-cleavage of 2.46.
Work on A77U yielded a self-cleavage of 1.21.
Work on C61G A77G yielded a self-cleavage of 0.07.
Work on G36C A107G yielded a self-cleavage of 2.05.
In the case of U23C A42U, the self-cleavage is reported as 1.22.
For A67U U132C, the self-cleavage was 0.16.
U26C A79U showed a self-cleavage of 0.68.
In the case of A57G A138C, the self-cleavage is reported as 1.13.
Work on A69C A78G yielded a self-cleavage of 0.1.
With A24G G35U the self-cleavage was 1.15.
In the case of G7U A78G, the self-cleavage is reported as 0.88.
A57G A117U gave a self-cleavage of 0.79.
U45C U62G showed a self-cleavage of 0.
U102A G105U gave a self-cleavage of 1.09.
With C61U G82A the self-cleavage was 0.02.
In the case of A30G G139A, the self-cleavage is reported as 1.31.
In the case of A124U C131A, the self-cleavage is reported as 0.96.
Variant U115C U132C has a self-cleavage of 1.84.
Variant A57G G125U has a self-cleavage of 0.92.
Variant A6U U143G has a self-cleavage of 1.12.
Work on A79U A117G yielded a self-cleavage of 2.57.
C51A U96A showed a self-cleavage of 0.11.
For G53C A64G, the self-cleavage was 0.22.
Work on U102C C128U yielded a self-cleavage of 1.67.
G88A U130C gave a self-cleavage of 0.01.
With G34A G70A the self-cleavage was 0.11.
U47C A57G showed a self-cleavage of 1.54.
Variant U20C G35A has a self-cleavage of 1.73.
Variant A64U U85C has a self-cleavage of 0.08.
U87C U134G showed a self-cleavage of 0.31.
Work on A77U U134A yielded a self-cleavage of 0.57.
Work on G93U U115C yielded a self-cleavage of 0.04.
Variant U52C C128A has a self-cleavage of 0.71.
U12A U52G showed a self-cleavage of 2.35.
Variant U85A C128G has a self-cleavage of 0.06.
G11A A42G showed a self-cleavage of 1.43.
With U26G A141G the self-cleavage was 0.97.
For A140U, the self-cleavage was 1.26.
Work on A140G yielded a self-cleavage of 1.07.
U45G U47C gave a self-cleavage of 1.92.
With A67G C68U the self-cleavage was 0.04.
With U13C C120G the self-cleavage was 1.48.
With U14C U115A the self-cleavage was 1.45.
Variant A6G U109C has a self-cleavage of 0.71.
U26C U96C gave a self-cleavage of 0.29.
Variant G35U A67G has a self-cleavage of 0.35.
In the case of C16U U134C, the self-cleavage is reported as 2.6.
With U1C U15C the self-cleavage was 0.92.
U47A A77U showed a self-cleavage of 1.46.
G41U U100C showed a self-cleavage of 1.28.
With U26G U108C the self-cleavage was 1.41.
For U73A U100C, the self-cleavage was 2.71.
For A24U U143A, the self-cleavage was 1.13.
For A67U A129G, the self-cleavage was 0.08.
With A117U C123U the self-cleavage was 0.78.
G60U U100A gave a self-cleavage of 0.02.
A2G U112A showed a self-cleavage of 0.09.
A2U U14C showed a self-cleavage of 0.83.
A43G A65C showed a self-cleavage of 0.
Work on G86A A140G yielded a self-cleavage of 0.03.
U130A A142G gave a self-cleavage of 1.48.
With A50U A94G the self-cleavage was 0.29.
For U13A C38A, the self-cleavage was 0.96.
Variant A65G G105A has a self-cleavage of 0.01.
With C66A A124U the self-cleavage was 0.04.
C56G showed a self-cleavage of 0.07.
Variant G8U A59G has a self-cleavage of 0.12.
In the case of A42G U73C, the self-cleavage is reported as 1.5.
U62C A142G gave a self-cleavage of 0.06.
U39A A65U gave a self-cleavage of 0.15.
U12C U45A gave a self-cleavage of 0.88.
G32U A79G gave a self-cleavage of 0.97.
Variant A64U A117U has a self-cleavage of 0.49.
For U52C A136U, the self-cleavage was 0.81.
Variant C98U A107G has a self-cleavage of 0.46.
A79C U91A showed a self-cleavage of 0.94.
U23C A124G showed a self-cleavage of 1.52.
C131U A142G showed a self-cleavage of 1.61.
In the case of A42G G135A, the self-cleavage is reported as 1.69.
For C37A U47A, the self-cleavage was 1.12.
U23A A142G gave a self-cleavage of 1.12.
C128U A129G gave a self-cleavage of 1.65.
With U14A A124U the self-cleavage was 1.67.
With U73A G127A the self-cleavage was 1.58.
With U12G U134C the self-cleavage was 1.19.
For U46C A64U, the self-cleavage was 0.55.
U73C G137U showed a self-cleavage of 2.46.
G21A U46C gave a self-cleavage of 1.31.
With C3U C16U the self-cleavage was 0.76.
U5A U9C showed a self-cleavage of 0.81.
Variant A69U U119A has a self-cleavage of 0.03.
U1C A124G gave a self-cleavage of 0.75.
Work on U119C G122C yielded a self-cleavage of 2.
A57U U87A showed a self-cleavage of 0.05.
In the case of U14G U81A, the self-cleavage is reported as 1.91.
With G7A U109A the self-cleavage was 1.49.
